Measurements taken from publication PMC8513821 (Nature, 2021).

Target: the molecule itself
Experiment: single-molecule photobleaching step counting

B1: HCN1SM (human HCN1 with amino acids 636-865 deleted, N-terminal Twin-strep tag and eGFP) (complex, UniProt O60741 1-890, looked up)
chain: MEGGGKPNSSSNSRDDGNSVFPAKASATGAGPAAAEKRLGTPPGGGGAGAKEHGNSVCFKVDGGGGGGGGGGGGEEPAGGFEDAEGPRRQYGFMQRQFTSMLQPGVNKFSLRMFGSQKAVEKEQERVKTAGFWIIHPYSDFRFYWDLIMLIMMVGNLVIIPVGITFFTEQTTTPWIIFNVASDTVFLLDLIMNFRTGTVNEDSSEIILDPKVIKMNYLKSWFVVDFISSIPVDYIFLIVEKGMDSEVYKTARALRIVRFTKILSLLRLLRLSRLIRYIHQWEEIFHMTYDLASAVVRIFNLIGMMLLLCHWDGCLQFLVPLLQDFPPDCWVSLNEMVNDSWGKQYSYALFKAMSHMLCIGYGAQAPVSMSDLWITMLSMIVGATCYAMFVGHATALIQSLDSSRRQYQEKYKQVEQYMSFHKLPADMRQKIHDYYEHRYQGKIFDEENILNELNDPLREEIVNFNCRKLVATMPLFANADPNFVTAMLSKLRFEVFQPGDYIIREGAVGKKMYFIQHGVAGVITKSSKEMKLTDGSYFGEICLLTKGRRTASVRADTYCRLYSLSVDNFNEVLEEYPMMRRAFETVAIDRLDRIGKKNSILLQKFQKDLNTGVFNNQENEILKQIVKHDREMVQAALPRESSSVLNTDPDAEKPRFASNL
- stoichiometry N: 4
